Experimental data as given in patent publication US20040053347A1.

Molecular target: BRCA2 protein, endogenous in cell extracts (human) (UniProt P51587)
Assay: estimate from co-immunoprecipitation with anti-BRCA2 antibodies

Chain of UniProt P51587 (P51587 whole entry): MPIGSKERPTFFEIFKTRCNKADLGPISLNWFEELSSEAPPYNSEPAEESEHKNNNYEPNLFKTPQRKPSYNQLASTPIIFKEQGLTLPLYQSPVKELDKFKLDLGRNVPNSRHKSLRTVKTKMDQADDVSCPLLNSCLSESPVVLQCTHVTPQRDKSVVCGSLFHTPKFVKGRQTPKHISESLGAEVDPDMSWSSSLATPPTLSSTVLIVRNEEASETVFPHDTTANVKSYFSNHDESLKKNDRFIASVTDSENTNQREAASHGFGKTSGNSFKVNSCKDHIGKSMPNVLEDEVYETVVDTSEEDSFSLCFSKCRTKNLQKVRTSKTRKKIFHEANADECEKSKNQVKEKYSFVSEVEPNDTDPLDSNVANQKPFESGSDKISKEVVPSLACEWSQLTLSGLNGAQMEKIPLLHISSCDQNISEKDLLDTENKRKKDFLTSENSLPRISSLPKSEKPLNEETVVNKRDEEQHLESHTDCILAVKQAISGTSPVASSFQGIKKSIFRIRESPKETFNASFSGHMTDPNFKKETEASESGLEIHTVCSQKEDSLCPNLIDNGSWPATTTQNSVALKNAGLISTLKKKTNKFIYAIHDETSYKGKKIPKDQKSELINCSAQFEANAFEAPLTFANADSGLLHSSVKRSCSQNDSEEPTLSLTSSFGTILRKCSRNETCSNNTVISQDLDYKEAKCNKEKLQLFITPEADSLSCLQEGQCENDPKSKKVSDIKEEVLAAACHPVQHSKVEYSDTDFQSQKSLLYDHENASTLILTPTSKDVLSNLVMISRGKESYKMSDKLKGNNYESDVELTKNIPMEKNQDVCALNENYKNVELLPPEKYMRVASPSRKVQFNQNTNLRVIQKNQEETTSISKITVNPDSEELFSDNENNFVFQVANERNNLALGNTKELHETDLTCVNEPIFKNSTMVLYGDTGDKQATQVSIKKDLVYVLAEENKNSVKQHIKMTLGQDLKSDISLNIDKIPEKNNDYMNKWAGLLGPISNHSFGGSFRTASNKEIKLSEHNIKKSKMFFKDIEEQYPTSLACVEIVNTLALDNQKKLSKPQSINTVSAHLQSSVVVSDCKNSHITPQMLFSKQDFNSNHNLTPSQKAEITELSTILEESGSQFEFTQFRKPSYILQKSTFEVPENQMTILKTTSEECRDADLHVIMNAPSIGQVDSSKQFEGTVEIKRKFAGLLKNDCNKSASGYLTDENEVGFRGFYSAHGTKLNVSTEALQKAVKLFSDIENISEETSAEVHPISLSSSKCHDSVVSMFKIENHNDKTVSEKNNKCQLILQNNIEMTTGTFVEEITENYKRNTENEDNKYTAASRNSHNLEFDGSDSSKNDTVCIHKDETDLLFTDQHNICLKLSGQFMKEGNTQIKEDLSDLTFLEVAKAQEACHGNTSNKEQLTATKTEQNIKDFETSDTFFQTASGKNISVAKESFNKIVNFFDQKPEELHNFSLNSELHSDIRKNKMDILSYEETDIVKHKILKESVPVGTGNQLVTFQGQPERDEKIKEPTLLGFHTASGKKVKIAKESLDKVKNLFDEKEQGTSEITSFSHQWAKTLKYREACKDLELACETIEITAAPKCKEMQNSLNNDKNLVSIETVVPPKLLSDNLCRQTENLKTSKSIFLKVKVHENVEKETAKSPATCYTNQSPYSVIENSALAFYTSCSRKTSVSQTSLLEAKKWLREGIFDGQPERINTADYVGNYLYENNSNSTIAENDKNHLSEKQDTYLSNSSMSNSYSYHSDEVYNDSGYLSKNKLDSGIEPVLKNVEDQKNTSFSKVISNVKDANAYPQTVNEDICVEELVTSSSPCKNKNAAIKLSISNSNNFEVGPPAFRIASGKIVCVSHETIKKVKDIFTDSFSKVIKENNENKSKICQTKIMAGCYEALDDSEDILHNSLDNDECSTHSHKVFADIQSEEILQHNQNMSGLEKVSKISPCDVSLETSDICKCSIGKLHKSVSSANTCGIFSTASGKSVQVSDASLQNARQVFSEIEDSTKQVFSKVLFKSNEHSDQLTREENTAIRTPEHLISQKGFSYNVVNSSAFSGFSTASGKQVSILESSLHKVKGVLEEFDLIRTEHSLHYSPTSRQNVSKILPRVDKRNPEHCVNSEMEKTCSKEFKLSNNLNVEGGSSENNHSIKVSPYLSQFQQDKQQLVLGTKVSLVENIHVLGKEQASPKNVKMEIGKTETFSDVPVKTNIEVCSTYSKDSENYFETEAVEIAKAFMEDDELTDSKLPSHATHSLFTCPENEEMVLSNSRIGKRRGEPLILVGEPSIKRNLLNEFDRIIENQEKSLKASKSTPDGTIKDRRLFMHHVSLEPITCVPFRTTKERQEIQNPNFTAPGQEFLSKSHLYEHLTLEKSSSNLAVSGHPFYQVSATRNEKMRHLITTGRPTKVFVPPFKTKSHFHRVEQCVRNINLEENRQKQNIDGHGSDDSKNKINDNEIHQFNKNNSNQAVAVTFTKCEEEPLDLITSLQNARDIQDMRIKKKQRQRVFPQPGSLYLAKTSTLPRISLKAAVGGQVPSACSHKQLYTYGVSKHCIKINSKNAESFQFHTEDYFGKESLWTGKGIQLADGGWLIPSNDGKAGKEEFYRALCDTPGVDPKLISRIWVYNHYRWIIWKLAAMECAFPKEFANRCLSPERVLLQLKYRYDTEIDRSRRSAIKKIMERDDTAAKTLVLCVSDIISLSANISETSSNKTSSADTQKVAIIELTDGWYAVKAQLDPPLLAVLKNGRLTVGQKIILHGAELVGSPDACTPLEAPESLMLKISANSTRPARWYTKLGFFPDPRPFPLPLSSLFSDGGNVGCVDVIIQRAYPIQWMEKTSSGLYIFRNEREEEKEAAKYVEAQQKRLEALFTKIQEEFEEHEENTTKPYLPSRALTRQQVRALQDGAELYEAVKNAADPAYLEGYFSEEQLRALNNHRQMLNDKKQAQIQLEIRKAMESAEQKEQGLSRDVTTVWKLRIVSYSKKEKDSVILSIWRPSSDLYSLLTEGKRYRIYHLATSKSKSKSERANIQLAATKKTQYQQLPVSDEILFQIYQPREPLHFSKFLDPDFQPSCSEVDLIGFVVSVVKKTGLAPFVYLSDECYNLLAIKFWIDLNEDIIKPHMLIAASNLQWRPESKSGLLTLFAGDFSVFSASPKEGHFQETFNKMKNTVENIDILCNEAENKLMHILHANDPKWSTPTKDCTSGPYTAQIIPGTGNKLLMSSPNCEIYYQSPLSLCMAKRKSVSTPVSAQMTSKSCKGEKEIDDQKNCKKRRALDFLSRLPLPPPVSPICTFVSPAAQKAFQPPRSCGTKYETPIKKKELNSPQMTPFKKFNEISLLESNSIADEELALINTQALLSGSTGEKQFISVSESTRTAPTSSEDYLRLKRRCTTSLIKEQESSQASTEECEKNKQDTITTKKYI

Substance: BRAF35, endogenous protein in HeLa or MCF7 cell extracts
- percent of endogenous BRAF35 present in the BRCA2 complex: 2 to 4%
